Experimental data published in PMC12576452.

Target: HBV-S/preS1^16-42 antigen, untagged, produced in P. purpureum (Hepatitis B virus) (UniProt P03138)
Test: SDS-PAGE under native, non-reducing (-DTT) and reducing (+DTT) conditions with western blot; lysates of freeze-dried algal biomass; bands of monomers, dimers and oligomers detected with anti-preS1 antibodies; disulfide-linked

With “HBV-S/preS1^16-42 antigen, untagged, produced in P. purpureum (from UniProt P03138 16-42)” as the substance, how does the stoichiometry N read?
The stoichiometry N was 2.
